The subject of data set [1] is DLD1 and U20S cells. Briefly: Mitotic index of stably transfected DLD1 and U20S cells in response to nocodazole. In kind it is cell-based, human. As to the method: (§1) Stable transfectants were prepared by transfecting DLD1 or U20S cells with 5 μg pSV2-HAchfr or pSV2-HAchfr-M580, or 5 μg pSV2 vector without insert and 1 μg pSV7neo plasmid [Wieczorek et al., supra] using Fugene-6 transfection reagent (Roche). Stably transfected cells were selected with G418. For transient expression, DLD1 or U20S cells were transfected with 5 μg pSV2-HAchfr or pSV2-HAchfrM580 or pSV2 plasmid without insert and 2 μg of a plasmid expressing green fluorescent protein using Fugene-6. SAOS2 cells were transfected as described above, except that the plasmids expressing Chfr were cotransfected with a plasmid expressing green fluorescent protein (GFP).
(§2) Cells were grown on 8-well culture slides coated with human fibronectin (Becton Dickinson) and were examined as either non-synchronized or synchronized cells. […] The slides were sealed with coverslips using Fluoromount-G (Upstate Biotechnology) and visualized with a fluorescence microscope (Leica). […]
To determine whether Chfr accounted for the different response, DLD1 and U20S cells were prepared to stably express HA-tagged wild-type Chfr or Chfr with the […] substitution (M580) or just the neo selectable marker. […] Furthermore, the different effects of wild-type Chfr and Chfr-M580 could not be attributed to differences in protein expression, as determined by immunoblotting. […]

Data set [2] deals with DLD1 cells. Briefly: Mitotic index of transiently-transfected DLD1 cells exposed to mitotic stress. In kind it is cell-based, human. To be noted: DLD1 cells co-transfected with wild-type Chfr. As to the method:
as §1, §2
About 50% of the cells expressed GFP, but the variable level of expression made it difficult to define a threshold above which a cell would be considered GFP-positive. Thus, to avoid any bias, the mitotic index was calculated for the entire cell population. […]

Data set [3] has as its system Chfr. Briefly: Ubiquitin-protein ligase assay in vitro. In kind it is biochemical, human. To be noted: crude bacterial lysates with E1, E2, ubiquitin and ATP; 20 minutes at 30° C. As to the method:
Recombinant E. coli bacterial cells that have been genetically engineered to express the E1 ubiquitin-activating enzyme and the E2 ubiquitin-conjugating enzyme (either UbchD2 or Ubch8) and a […] comprised of glutathione S-transferase fused to the N-terminus of Chfr were lysed. The lysates were incubated in the presence of ubiquitin and ATP and the reaction allowed to proceed for 20 minutes at 30° C. GST-Chfr was captured on glutathione beads, eluted with SDS sample buffer, and resolved by SDS-PAGE. The SDS gel was immunoblotted with antibodies that recognize ubiquitin. Reactions were performed with full-length Chfr fused to GST and reactions were performed with Chfr lacking amino acid residues 1–280 of SEQ ID NO: 2, which contain the FHA domain.

Data set [4] concerns DLD1 cells. Kind of data set: Mitotic index of unsynchronized DLD1 cells stably expressing Chfr or Chfr-A325, exposed to nocodazole. In kind it is cell-based, human. To be noted: stably transfected unsynchronized DLD1 cells. An excerpt:
To determine whether ubiquitin-protein ligase activity is required for checkpoint function, the Chfr mutant that substitutes Cys325 of the ring finger with Ala was stably-expressed in DLD1 cells. These cells were then exposed to mitotic stress and examined for entry into metaphase. The mitotic index of unsynchronized DLD1 cells exposed to nocodazole is high, indicating the absence of a checkpoint that would delay entry into metaphase in response to mitotic stress.

B1: Chfr-M580: chfr protein bearing a substitution of Val580 with Met (protein, UniProt Q96EP1 1-664, looked up, variant V580M)
E3 ubiquitin-protein ligase …: MERPEEGKQSPPPQPWGRLLRLGAEEGEPHVLLRKREWTIGRRRGCDLSFPSNKLVSGDHCRIVVDEKSGQVTLEDTSTSGTVINKLKVVKKQTCPLQTGDVIYLVYRKNEPEHNVAYLYESLSEKQGMTQESFEANKENVFHGTKDTSGAGAGRGADPRVPPSSPATQVCFEEPQPSTSTSDLFPTASASSTEPSPAGRERSSSCGSGGGGISPKGSGPSVASDEVSSFASALPDRKTASFSSLEPQDQEDLEPVKKKMRGDGDLDLNGQLLVAQPRRNAQTVHEDVRAAAGKPDKMEETLTCIICQDLLHDCVSLQPCMHTFCAACYSGWMERSSLCPTCRCPVERICKNHILNNLVEAYLIQHPDKSRSEEDVQSMDARNKITQDMLQPKVRRSFSDEEGSSEDLLELSDVDSESSDISQPYVVCRQCPEYRRQAAQPPHCPAPEGEPGAPQALGDAPSTSVSLTTAVQDYVCPLQGSHALCTCCFQPMPDRRAEREQDPRVAPQQCAVCLQPFCHLYWGCTRTGCYGCLAPFCELNLGDKCLDGVLNNNSYESDILKNYLATRGLTWKNMLTESLMALQRGVFLLSDYRVTGDTVLCYCCGLRSFRELTYQYRQNIPASELPVAVTSRPDCYWGRNCRTQVKAHHAMKFNHICEQTRFKN
Turning to B1, the “mitotic index in response to nocodazole” value in data set [1] is listed as “high mitotic index”. The “dominant negative effect on wild-type Chfr” value in data set [2] was “aid not act as a dominant negative mutant”.

B2: Chfr-A325: Chfr mutant that substitutes Cys325 of the ring finger with Ala (protein, UniProt Q96EP1 1-664, looked up, variant C325A)
E3 ubiquitin-protein ligase …: MERPEEGKQSPPPQPWGRLLRLGAEEGEPHVLLRKREWTIGRRRGCDLSFPSNKLVSGDHCRIVVDEKSGQVTLEDTSTSGTVINKLKVVKKQTCPLQTGDVIYLVYRKNEPEHNVAYLYESLSEKQGMTQESFEANKENVFHGTKDTSGAGAGRGADPRVPPSSPATQVCFEEPQPSTSTSDLFPTASASSTEPSPAGRERSSSCGSGGGGISPKGSGPSVASDEVSSFASALPDRKTASFSSLEPQDQEDLEPVKKKMRGDGDLDLNGQLLVAQPRRNAQTVHEDVRAAAGKPDKMEETLTCIICQDLLHDCVSLQPCMHTFAAACYSGWMERSSLCPTCRCPVERICKNHILNNLVEAYLIQHPDKSRSEEDVQSMDARNKITQDMLQPKVRRSFSDEEGSSEDLLELSDVDSESSDISQPYVVCRQCPEYRRQAAQPPHCPAPEGEPGAPQALGDAPSTSVSLTTAVQDYVCPLQGSHALCTCCFQPMPDRRAEREQDPRVAPQQCAVCLQPFCHLYWGCTRTGCYGCLAPFCELNLGDKCLDGVLNNNSYESDILKNYLATRGLTWKNMLTESLVALQRGVFLLSDYRVTGDTVLCYCCGLRSFRELTYQYRQNIPASELPVAVTSRPDCYWGRNCRTQVKAHHAMKFNHICEQTRFKN
For B2, the “ubiquitin-protein ligase activity (ubiquitination of GST-Chfr)” value in data set [3] is “lacks ubiquitin-protein ligase activity”. Moreover, in data set [4], the “mitotic index after exposure to nocodazole” value is given as “did not lead to a low mitotic index”.

B3: GST-Chfr: glutathione S-transferase fused to the N-terminus of full-length Chfr (protein)
chain: MERPEEGKQSPPPQPWGRLLRLGAEEGEPHVLLRKREWTIGRRRGCDLSFPSNKLVSGDHCRIVVDEKSGQVTLEDTSTSGTVINKLKVVKKQTCPLQTGDVIYLVYRKNEPEHNVAYLYESLSEKQGMTQESFEANKENVFHGTKDTSGAGAGRGADPRVPPSSPATQVCFEEPQPSTSTSDLFPTASASSTEPSPAGRERSSSCGSGGGGISPKGSGPSVASDEVSSFASALPDRKTASFSSLEPQDQEDLEPVKKKMRGDGDLDLNGQLLVAQPRRNAQTVHEDVRAAAGKPDKMEETLTCIICQDLLHDCVSLQPCMHTFCAACYSGWMERSSLCPTCRCPVERICKNHILNNLVEAYLIQHPDKSRSEEDVQSMDARNKITQDMLQPKVRRSFSDEEGSSEDLLELSDVDSESSDISQPYVVCRQCPEYRRQAAQPPHCPAPEGEPGAPQALGDAPSTSVSLTTAVQDYVCPLQGSHALCTCCFQPMPDRRAEREQDPRVAPQQCAVCLQPFCHLYWGCTRTGCYGCLAPFCELNLGDKCLDGVLNNNSYESDILKNYLATRGLTWKNMLTESLVALQRGVFLLSDYRVTGDTVLCYCCGLRSFRELTYQYRQNIPASELPVAVTSRPDCYWGRNCRTQVKAHHAMKFNHICEQTRFKN
modifications: left off: a dimerising Fc or GST
B3: the “ubiquitin-protein ligase activity (ubiquitination of GST-Chfr)” value in data set [3] is recorded as “efficient ubiquitination”.

Values taken from US7176293B1, “Compositions and methods to enhance sensitivity of cancer cells to mitotic stress” (The Wistar Institute of Anatomy and Biology, priority 1999, dated 2007).
